Results on 4 sequences are retold here after patent US10500249B2, “Compositions and methods for preventing or treating diseases, conditions, or processes characterized by aberrant fibroblast proliferation and extracellular matrix deposition” (MOERAE MATRIX, INC., priority 2014, dated 2019).

Test in all cases: Kinase Profiling Assay
What all share (format): biochemical
Common to all, as to conditions: 100 μM

One assay addresses T1, CDK9/cyclin T1 (h) (Homo sapiens, UniProt P50750).
T1 construct: purchased Millipore
Put shortly: (§1)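 Measured twice per kinase, activity in presence of MK2 inhibitory peptide was calculated against a 100% activity control after radiometric phosphorylation of a cationic substrate, anionic filter capture and scintillation counting; one of 266 human kinases profiled for specificity.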

The target in a further assay is EphA7 (h) (Homo sapiens, UniProt Q15375). The method in brief:
as §1

The target of the next assay is T2, DDR2 (h) (Homo sapiens, UniProt Q16832).
T2 construct: purchased Millipore
T2 sequence (Q16832 22-855): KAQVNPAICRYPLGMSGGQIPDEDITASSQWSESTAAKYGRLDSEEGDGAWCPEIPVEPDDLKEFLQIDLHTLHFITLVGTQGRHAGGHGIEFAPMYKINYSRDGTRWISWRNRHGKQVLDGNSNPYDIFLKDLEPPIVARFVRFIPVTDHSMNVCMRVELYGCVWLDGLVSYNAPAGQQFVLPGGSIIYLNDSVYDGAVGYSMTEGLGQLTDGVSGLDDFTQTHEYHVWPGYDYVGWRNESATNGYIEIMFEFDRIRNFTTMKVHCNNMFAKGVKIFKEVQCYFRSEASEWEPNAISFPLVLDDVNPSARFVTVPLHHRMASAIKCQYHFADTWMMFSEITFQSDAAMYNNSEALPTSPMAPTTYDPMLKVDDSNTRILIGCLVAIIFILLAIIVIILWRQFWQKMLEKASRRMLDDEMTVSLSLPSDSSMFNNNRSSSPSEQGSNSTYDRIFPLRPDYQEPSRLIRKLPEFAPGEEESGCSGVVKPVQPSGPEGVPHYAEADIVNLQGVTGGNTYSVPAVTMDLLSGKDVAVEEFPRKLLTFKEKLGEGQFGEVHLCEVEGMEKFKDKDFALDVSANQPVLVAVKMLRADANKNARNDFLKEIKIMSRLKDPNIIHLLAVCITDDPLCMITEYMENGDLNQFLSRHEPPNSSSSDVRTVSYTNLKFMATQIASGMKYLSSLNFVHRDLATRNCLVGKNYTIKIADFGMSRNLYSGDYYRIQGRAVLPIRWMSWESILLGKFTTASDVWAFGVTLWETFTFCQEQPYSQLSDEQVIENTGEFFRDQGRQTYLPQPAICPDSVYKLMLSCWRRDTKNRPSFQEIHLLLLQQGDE
The method in brief:
as §1

Another assay has as its target T3, SGK3 (h) (Homo sapiens, UniProt Q96BR1).
T3 sequence (Q96BR1 1-496): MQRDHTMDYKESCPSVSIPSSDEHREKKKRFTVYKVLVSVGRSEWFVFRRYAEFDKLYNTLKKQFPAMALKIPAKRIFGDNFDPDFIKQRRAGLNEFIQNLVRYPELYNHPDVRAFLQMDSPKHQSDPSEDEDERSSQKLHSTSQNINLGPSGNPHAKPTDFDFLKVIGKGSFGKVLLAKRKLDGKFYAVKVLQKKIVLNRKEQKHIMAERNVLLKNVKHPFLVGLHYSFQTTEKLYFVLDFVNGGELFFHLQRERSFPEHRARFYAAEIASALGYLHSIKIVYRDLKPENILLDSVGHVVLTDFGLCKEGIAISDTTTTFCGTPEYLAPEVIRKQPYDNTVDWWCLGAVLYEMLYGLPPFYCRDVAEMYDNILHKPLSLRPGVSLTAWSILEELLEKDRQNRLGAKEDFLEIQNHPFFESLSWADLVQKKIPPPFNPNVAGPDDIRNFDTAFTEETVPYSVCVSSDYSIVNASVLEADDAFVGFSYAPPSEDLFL
The method in brief: as §1

A further assay concerns the target Syk (h) (Homo sapiens, UniProt P43405). The method in brief: as §1
The next assay has as its target Ret (h) (Homo sapiens, UniProt P07949). Put shortly:
as §1

A further assay deals with T4, CDK5/p35 (h) (Homo sapiens, UniProt Q00535).
T4 construct: purchased Millipore
Put shortly: as §1

The target of another assay is T5, SGK2 (h) (Homo sapiens, UniProt Q9HBY8).
T5 sequence (Q9HBY8 1-367): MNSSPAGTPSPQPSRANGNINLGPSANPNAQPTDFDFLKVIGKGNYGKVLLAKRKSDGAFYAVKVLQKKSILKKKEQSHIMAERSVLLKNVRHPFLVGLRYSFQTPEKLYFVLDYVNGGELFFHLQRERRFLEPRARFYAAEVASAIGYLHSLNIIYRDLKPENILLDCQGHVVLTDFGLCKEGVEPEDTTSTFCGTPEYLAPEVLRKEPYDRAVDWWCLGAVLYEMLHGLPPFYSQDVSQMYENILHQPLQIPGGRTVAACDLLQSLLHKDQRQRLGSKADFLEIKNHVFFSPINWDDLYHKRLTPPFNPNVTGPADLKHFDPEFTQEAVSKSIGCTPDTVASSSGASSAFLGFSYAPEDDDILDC
The method in brief:
as §1

A further assay has as its target T6, CaMKIδ (h) (Homo sapiens, UniProt Q8IU85).
T6 construct: purchased Millipore
The method in brief: as §1

The target in another assay is T7, CDK2/cyclinE (h) (Homo sapiens, UniProt P24941).
T7 construct: purchased Millipore
Put shortly:
as §1

A further assay has as its target T8, PAK4 (h) (Homo sapiens, UniProt O96013).
T8 construct: purchased Millipore
Put shortly:
as §1

The next assay concerns the target Met(Y1248D) (h) (Homo sapiens, UniProt P08581, Y1230D). The method in brief:
as §1

Chain of EphA7 (h) (Q15375 28-998): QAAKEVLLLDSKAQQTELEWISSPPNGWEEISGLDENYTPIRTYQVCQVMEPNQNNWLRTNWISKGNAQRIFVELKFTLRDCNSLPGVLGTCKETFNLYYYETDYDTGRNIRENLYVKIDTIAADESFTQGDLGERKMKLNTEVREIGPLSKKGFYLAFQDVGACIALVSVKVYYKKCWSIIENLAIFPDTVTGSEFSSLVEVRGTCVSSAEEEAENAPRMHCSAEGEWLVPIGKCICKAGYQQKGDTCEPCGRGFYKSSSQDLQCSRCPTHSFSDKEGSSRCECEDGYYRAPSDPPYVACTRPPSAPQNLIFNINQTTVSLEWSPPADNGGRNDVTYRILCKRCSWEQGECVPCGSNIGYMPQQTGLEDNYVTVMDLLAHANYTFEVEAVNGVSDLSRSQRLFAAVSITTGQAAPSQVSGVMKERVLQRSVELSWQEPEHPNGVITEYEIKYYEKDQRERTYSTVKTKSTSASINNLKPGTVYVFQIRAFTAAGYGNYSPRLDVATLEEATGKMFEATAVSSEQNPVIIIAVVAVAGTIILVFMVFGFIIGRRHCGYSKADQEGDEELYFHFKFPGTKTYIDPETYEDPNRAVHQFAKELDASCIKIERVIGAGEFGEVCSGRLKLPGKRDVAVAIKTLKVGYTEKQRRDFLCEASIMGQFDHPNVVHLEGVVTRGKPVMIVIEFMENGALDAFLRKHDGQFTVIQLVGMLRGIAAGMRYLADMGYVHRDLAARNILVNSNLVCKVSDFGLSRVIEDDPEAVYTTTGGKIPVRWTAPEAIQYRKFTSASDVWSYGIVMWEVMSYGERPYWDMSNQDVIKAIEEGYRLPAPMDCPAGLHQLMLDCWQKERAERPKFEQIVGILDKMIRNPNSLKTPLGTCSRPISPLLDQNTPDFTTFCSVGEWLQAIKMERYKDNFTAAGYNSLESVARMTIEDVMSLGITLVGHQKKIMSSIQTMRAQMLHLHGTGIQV
T4 sequence (Q00535 whole entry): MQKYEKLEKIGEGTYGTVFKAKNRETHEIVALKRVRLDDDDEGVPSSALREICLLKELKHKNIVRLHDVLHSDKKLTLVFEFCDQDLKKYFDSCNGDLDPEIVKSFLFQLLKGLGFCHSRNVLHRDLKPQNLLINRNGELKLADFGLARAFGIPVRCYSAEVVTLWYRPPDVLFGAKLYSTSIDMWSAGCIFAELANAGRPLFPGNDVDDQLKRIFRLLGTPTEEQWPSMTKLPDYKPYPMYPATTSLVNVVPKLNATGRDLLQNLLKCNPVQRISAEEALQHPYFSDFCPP
T4 sequence (Q15078 2-307 partner limits assumed): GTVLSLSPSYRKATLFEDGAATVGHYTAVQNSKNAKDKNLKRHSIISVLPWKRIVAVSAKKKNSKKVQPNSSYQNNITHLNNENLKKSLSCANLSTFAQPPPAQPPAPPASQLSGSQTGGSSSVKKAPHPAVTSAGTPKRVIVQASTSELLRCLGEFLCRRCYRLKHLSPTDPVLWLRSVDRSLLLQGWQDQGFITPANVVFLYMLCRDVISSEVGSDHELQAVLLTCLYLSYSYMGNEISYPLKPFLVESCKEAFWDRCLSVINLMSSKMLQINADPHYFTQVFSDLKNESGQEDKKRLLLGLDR
T6 sequence (Q8IU85 whole entry): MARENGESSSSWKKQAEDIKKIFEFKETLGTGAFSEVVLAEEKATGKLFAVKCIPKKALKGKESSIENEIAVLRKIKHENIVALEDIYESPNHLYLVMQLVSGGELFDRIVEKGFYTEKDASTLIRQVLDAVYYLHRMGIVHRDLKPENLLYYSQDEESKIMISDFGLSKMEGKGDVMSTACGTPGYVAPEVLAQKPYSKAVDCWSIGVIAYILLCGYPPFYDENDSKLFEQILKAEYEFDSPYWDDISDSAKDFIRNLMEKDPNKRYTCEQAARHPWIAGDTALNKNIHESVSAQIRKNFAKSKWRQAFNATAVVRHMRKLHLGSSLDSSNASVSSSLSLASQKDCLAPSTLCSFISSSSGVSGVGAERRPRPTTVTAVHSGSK
T8 sequence (O96013 whole entry): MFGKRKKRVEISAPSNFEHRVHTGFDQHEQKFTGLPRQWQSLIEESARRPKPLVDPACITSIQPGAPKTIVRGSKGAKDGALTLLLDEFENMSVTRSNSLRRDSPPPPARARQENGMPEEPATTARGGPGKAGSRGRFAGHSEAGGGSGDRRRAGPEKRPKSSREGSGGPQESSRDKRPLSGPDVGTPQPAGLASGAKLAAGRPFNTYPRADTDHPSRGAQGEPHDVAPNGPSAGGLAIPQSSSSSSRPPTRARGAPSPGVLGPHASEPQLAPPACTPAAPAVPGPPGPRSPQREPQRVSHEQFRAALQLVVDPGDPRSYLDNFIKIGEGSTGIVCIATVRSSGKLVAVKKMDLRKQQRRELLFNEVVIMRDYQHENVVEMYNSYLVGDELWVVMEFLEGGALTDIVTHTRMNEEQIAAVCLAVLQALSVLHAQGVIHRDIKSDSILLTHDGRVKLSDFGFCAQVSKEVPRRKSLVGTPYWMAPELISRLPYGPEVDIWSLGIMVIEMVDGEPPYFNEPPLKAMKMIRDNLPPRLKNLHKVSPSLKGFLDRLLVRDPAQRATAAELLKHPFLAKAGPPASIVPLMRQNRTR
T1 sequence (P50750 whole entry): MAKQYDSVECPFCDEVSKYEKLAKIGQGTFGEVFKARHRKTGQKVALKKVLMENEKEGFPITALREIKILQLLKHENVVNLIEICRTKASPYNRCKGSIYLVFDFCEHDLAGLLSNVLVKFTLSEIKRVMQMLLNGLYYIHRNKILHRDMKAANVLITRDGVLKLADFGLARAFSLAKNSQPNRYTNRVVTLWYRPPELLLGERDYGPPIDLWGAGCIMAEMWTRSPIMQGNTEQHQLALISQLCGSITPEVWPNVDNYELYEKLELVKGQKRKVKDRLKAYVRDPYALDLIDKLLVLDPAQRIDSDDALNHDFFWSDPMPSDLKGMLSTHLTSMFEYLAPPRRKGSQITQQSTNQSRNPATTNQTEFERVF
T1 sequence (O60563 whole entry partner): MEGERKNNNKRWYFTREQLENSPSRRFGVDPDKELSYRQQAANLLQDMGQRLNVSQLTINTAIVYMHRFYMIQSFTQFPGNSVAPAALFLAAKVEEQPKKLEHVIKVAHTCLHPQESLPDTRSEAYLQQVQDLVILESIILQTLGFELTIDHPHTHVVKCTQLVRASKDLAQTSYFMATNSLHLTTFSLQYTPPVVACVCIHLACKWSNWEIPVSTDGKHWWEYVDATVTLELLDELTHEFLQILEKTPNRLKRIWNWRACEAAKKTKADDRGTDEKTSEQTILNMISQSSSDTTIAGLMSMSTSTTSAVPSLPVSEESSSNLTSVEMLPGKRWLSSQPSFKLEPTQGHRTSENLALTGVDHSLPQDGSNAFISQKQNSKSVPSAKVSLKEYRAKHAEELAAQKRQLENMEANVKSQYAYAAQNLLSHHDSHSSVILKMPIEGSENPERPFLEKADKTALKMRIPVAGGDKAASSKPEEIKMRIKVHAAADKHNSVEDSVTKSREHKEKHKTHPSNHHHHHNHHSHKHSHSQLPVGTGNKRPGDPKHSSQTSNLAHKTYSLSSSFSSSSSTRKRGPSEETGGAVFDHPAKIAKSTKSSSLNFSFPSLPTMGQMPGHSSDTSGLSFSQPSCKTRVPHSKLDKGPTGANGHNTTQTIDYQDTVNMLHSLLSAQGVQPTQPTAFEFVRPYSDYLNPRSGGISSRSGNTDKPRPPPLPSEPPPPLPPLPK

For the sequence FAKLAARLYRKALARQLGVAA [MMI-0300], the “% activity” value worked out at 91% in the assay with CDK9/cyclin T1 (h); 159% in the assay with EphA7 (h); 94% with DDR2 (h); 10% in the assay with SGK3 (h); 24% with Syk (h); 140% in the assay with Ret (h). In addition, the “% activity” value turned out to be 79% with CDK5/p35 (h); 56% with SGK2 (h); 10% with CaMKIδ (h); 94% with CDK2/cyclinE (h); 94% with PAK4 (h).
As to “HRRIKAWLKKIKALARQLGVAA (Mammalian) [MMI-0500]”, the “% activity” value with CDK9/cyclin T1 (h) is 6%; in the assay with Met(Y1248D) (h) it was 218%; in the assay with EphA7 (h), 189%; with DDR2 (h), 79%; with SGK3 (h) it was −3%; with Syk (h), 5%. The “% activity” value was 174% with Ret (h); 59% with CDK5/p35 (h); −1% with SGK2 (h); 0% with CaMKIδ (h); 19% in the assay with CDK2/cyclinE (h); 86% in the assay with PAK4 (h).
With “YARAAARQARAKALNRQLGVA (Mammalian) [MMI-0200]”, the “% activity” value is given as 118% with Met(Y1248D) (h); 220% with EphA7 (h); 58% with SGK3 (h); 36% with Syk (h); 96% in the assay with Ret (h); 92% in the assay with CDK5/p35 (h). Also, the “% activity” value with CaMKIδ (h) is 47%; with PAK4 (h), 98%.
Regarding KAFAKLAARLYRKALARQLGVAA [MMI-0400], the “% activity” value in the assay with CDK9/cyclin T1 (h) stood at 235%; with Met(Y1248D) (h), 31%; in the assay with EphA7 (h), 222%; with DDR2 (h), 95%; with SGK3 (h), 8%; with Syk (h), 9%. Besides, the “% activity” value came to 145% in the assay with Ret (h); 76% in the assay with CDK5/p35 (h); 98% in the assay with SGK2 (h); 17% with CaMKIδ (h); 83% with CDK2/cyclinE (h); 89% in the assay with PAK4 (h).
